Test results as given in the supplement of paper PMC10266784.

B1: library; numbered along this chain (parent)
chain: MAAAAAAAAEQQSSNGPVKKSMREKAVERRSVNKEHNSNFKAGYIPIDEDRLHKTGLRGRKGNLAICVIILLFILAVINLIITLVIWAVIRIGPNGCDSMEFHESGLLRFKQVSDMGVIHPLYKSTVGGRRNENLVITGNNQPIVFQQGTTKLSVENNKTSITSDIGMQFFDPRTQNILFSTDYETHEFHLPSGVKSLNVQKASTERITSNATSDLNIKVDGRAIVRGNEGVFIMGKTIEFHMGGNMELKAENSIILNGSVMVSTTRLPSSSSGDQLGSGDWVRYKLCMCADGTLFKVQVTSQNMGCQISDNPCGNTH

Variants of: B1
Assay: SGCB cell-surface expression functional score (HA stain, bin4 vs bin1, normalised to synonymous) (log10 ratio); higher = more cell-surface SGCB (functional)
In short: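 Codon-saturation libraries of HA-tagged, YFP-fused human beta-sarcoglycan were lentivirally transduced at MOI <0.1 into HEK293 cells stably expressing alpha-, gamma- and delta-sarcoglycan. YFP-positive cells were sorted after 72 hours, grown 5–7 days, stained on ice with Alexa Fluor 647 anti-HA, fixed, sorted into four 5% intensity bins and amplicon-sequenced. The functional score is the log ratio of highest-bin to lowest-bin variant frequency, taken as the median over codons and duplicate transductions. Synonymous variants were scaled per section to mean 0, SD 0.5.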

Q: Which “SGCB cell-surface expression functional score (log10)” value does the source give for MAAAAAAAAEQQSSNGPVKKSMREKAVERRSVNKEHNSNFKAGYIPIDEDRLHKTGLRGRKGNLAICVIILLFILAVINLIITLVIWAVIRIGPNGCDSMEFHESGLLRFKQVSDMGVIHPLYKSTVGGRRNENLVITGNNQPIVFQQGTTKLSVENNKTSITSDIGMQFFDPRTQNILFSTDYETHEFHLPSGVKSLNVQKASTERITSFATSDLNIKVDGRAIVRGNEGVFIMGKTIEFHMGGNMELKAENSIILNGSVMVSTTRLPSSSSGDQLGSGDWVRYKLCMCADGTLFKVQVTSQNMGCQISDNPCGNTH [N211F] here?
A: Its value is -0.28.

Q: Which “SGCB cell-surface expression functional score (log10)” value does the source give for MAAAAAAAAEQQSSNGPVKKSMREKAVERRSVNKEHNSNFKAGYIPIDEDRLHKTGLRGRKGNLAICVIILLFILAVINLIITLVIWAVIRIGPNGCDSMEFHESGLLRFKQVSDMGVIHPLYKSTVGGRRNENLVITGNNQPIVFQQGTTKLSVENNKTSITSDIGMQFFDPRTQNILFSTDYETHEFHLPSGVKSLNVQKASTERITSIATSDLNIKVDGRAIVRGNEGVFIMGKTIEFHMGGNMELKAENSIILNGSVMVSTTRLPSSSSGDQLGSGDWVRYKLCMCADGTLFKVQVTSQNMGCQISDNPCGNTH [N211I] here?
A: The value was -0.69.

Q: Which “SGCB cell-surface expression functional score (log10)” value does the source give for MAAAAAAAAEQQSSNGPVKKSMREKAVERRSVNKEHNSNFKAGYIPIDEDRLHKTGLRGRKGNLAICVIILLFILAVINLIITLVIWAVIRIGPNGCDSMEFHESGLLRFKQVSDMGVIHPLYKSTVGGRRNENLVITGNNQPIVFQQGTTKLSVENNKTSITSDIGMQFFDPRTQNILFSTDYETHEFHLPSGVKSLNVQKASTERITSAATSDLNIKVDGRAIVRGNEGVFIMGKTIEFHMGGNMELKAENSIILNGSVMVSTTRLPSSSSGDQLGSGDWVRYKLCMCADGTLFKVQVTSQNMGCQISDNPCGNTH [N211A] here?
A: Its value is -0.33.

Q: With MAAAAAAAAEQQSSNGPVKKSMREKAVERRSVNKEHNSNFKAGYIPIDEDRLHKTGLRGRKGNLAICVIILLFILAVINLIITLVIWAVIRIGPNGCDSMEFHESGLLRFKQVSDMGVIHPLYKSTVGGRRNENLVITGNNQPIVFQQGTTKLSVENNKTSITSDIGMQFFDPRTQNILFSTDYETHEFHLPSGVKSLNVQKASTERITSSATSDLNIKVDGRAIVRGNEGVFIMGKTIEFHMGGNMELKAENSIILNGSVMVSTTRLPSSSSGDQLGSGDWVRYKLCMCADGTLFKVQVTSQNMGCQISDNPCGNTH [N211S] as the variant, how does the “SGCB cell-surface expression functional score (log10)” value read?
A: Its value is -0.02.

Q: Which “SGCB cell-surface expression functional score (log10)” value does the source give for MAAAAAAAAEQQSSNGPVKKSMREKAVERRSVNKEHNSNFKAGYIPIDEDRLHKTGLRGRKGNLAICVIILLFILAVINLIITLVIWAVIRIGPNGCDSMEFHESGLLRFKQVSDMGVIHPLYKSTVGGRRNENLVITGNNQPIVFQQGTTKLSVENNKTSITSDIGMQFFDPRTQNILFSTDYETHEFHLPSGVKSLNVQKASTERITSRATSDLNIKVDGRAIVRGNEGVFIMGKTIEFHMGGNMELKAENSIILNGSVMVSTTRLPSSSSGDQLGSGDWVRYKLCMCADGTLFKVQVTSQNMGCQISDNPCGNTH [N211R] here?
A: The value was -0.82.

Q: With MAAAAAAAAEQQSSNGPVKKSMREKAVERRSVNKEHNSNFKAGYIPIDEDRLHKTGLRGRKGNLAICVIILLFILAVINLIITLVIWAVIRIGPNGCDSMEFHESGLLRFKQVSDMGVIHPLYKSTVGGRRNENLVITGNNQPIVFQQGTTKLSVENNKTSITSDIGMQFFDPRTQNILFSTDYETHEFHLPSGVKSLNVQKASTERITSHATSDLNIKVDGRAIVRGNEGVFIMGKTIEFHMGGNMELKAENSIILNGSVMVSTTRLPSSSSGDQLGSGDWVRYKLCMCADGTLFKVQVTSQNMGCQISDNPCGNTH [N211H] as the variant, how does the “SGCB cell-surface expression functional score (log10)” value read?
A: Its value is -0.34.

Q: Which “SGCB cell-surface expression functional score (log10)” value does the source give for MAAAAAAAAEQQSSNGPVKKSMREKAVERRSVNKEHNSNFKAGYIPIDEDRLHKTGLRGRKGNLAICVIILLFILAVINLIITLVIWAVIRIGPNGCDSMEFHESGLLRFKQVSDMGVIHPLYKSTVGGRRNENLVITGNNQPIVFQQGTTKLSVENNKTSITSDIGMQFFDPRTQNILFSTDYETHEFHLPSGVKSLNVQKASTERITSTATSDLNIKVDGRAIVRGNEGVFIMGKTIEFHMGGNMELKAENSIILNGSVMVSTTRLPSSSSGDQLGSGDWVRYKLCMCADGTLFKVQVTSQNMGCQISDNPCGNTH [N211T] here?
A: Its value is -0.4.

Q: For MAAAAAAAAEQQSSNGPVKKSMREKAVERRSVNKEHNSNFKAGYIPIDEDRLHKTGLRGRKGNLAICVIILLFILAVINLIITLVIWAVIRIGPNGCDSMEFHESGLLRFKQVSDMGVIHPLYKSTVGGRRNENLVITGNNQPIVFQQGTTKLSVENNKTSITSDIGMQFFDPRTQNILFSTDYETHEFHLPSGVKSLNVQKASTERITSDATSDLNIKVDGRAIVRGNEGVFIMGKTIEFHMGGNMELKAENSIILNGSVMVSTTRLPSSSSGDQLGSGDWVRYKLCMCADGTLFKVQVTSQNMGCQISDNPCGNTH [N211D], which “SGCB cell-surface expression functional score (log10)” value is on record?
A: The value was -0.68.

Q: Which “SGCB cell-surface expression functional score (log10)” value does the source give for MAAAAAAAAEQQSSNGPVKKSMREKAVERRSVNKEHNSNFKAGYIPIDEDRLHKTGLRGRKGNLAICVIILLFILAVINLIITLVIWAVIRIGPNGCDSMEFHESGLLRFKQVSDMGVIHPLYKSTVGGRRNENLVITGNNQPIVFQQGTTKLSVENNKTSITSDIGMQFFDPRTQNILFSTDYETHEFHLPSGVKSLNVQKASTERITSQATSDLNIKVDGRAIVRGNEGVFIMGKTIEFHMGGNMELKAENSIILNGSVMVSTTRLPSSSSGDQLGSGDWVRYKLCMCADGTLFKVQVTSQNMGCQISDNPCGNTH [N211Q] here?
A: Its value is -0.03.
